The stoichiometry N is the number of molecules, sites or subunits per partner or assembly.

The source of these data is article PMC7126439.

One assay concerns the target GCN4-pA. Nature of the assay: AUC.
In a further assay the target is GCN4-pV. Kind of assay: AUC.

With GCN4-pA (peptide), in the assay with GCN4-pA, the stoichiometry N is 4. In the assay with GCN4-pV, GCN4-pV (peptide) returned a stoichiometry N of 4.
